Measured values reported in article doi:10.1101/2024.10.14.618187, “Molecular basis of interchain disulfide-bond formation in BMP-9 and BMP-10” (bioRxiv, 2024).

B1: Pro-(X)-BMP-9 [human] / itself (parent)
chain: KPLQSWGRGSAGGNAHSPLGVPGGGLPEHTFNLKMFLENVKVDFLRSLNLSGVPSQDKTRVEPPQYMIDLYNRYTSDKSTTPASNIVRSFSMEDAISITATEDFPFQKHILLFNISIPRHEQITRAELRLYVSCQNHVDPSHDLKGSVVIYDVLDGTDAWDSATETKTFLVSQDIQDEGWETLEVSSAVKRWVRSDSTKSKNKLEVTVESHRKGCDTLDISVPPGSRNLPFFVVFSNDHSSGTKETRLELREMISHEQESVLKKLSKDGSTEAGESSHEEDTDGHVAAGSTLAIEGRSSGAGSHCQKTSLRVNFEDIGWDSWIIAPKEYEAYECKGGCFFPLADDVTPTKHAIVQTLVHLKFPTKVGKACCVPTKLSPISVLYKDDMGVPTLKYHYEGMSVAECGCR

Variants of: B1
Assay: SDS-PAGE densitometry after IMAC purification
Details: with itself

Row | screen value | Variant
1 | 1.29 | chain 1 G367S
2 | 3.24 | chain 1 K335R G367S
3 | 0.7 | chain 1 K335R
